Experimental data reported in patent publication US8129349B2, “Treatment of disease by inducing cell apoptosis” (The Regents of the University of California, priority 2000, dated 2012).
Marks after values point to notes of the source that are not given here.

Experiments:
[1] = tested on: RD (skeletal muscle cancer cells); test: Annexin-V binding apoptosis assay after transfection, RD cells; assay type: cell-based, human; conditions: annexin-V binding four hours after transfection
Protocol: (§1) In these experiments, C/EBPβ-Ala^217 was tested in two mesenchymal cell lines for its ability to induce apoptosis. Human mesenchymal cell lines 1321-N1 (glial cancer cells; obtained from Dr. Joan Brown, at the University of California, San Diego), RD (skeletal muscle cancer cells; ATCC Accession No. CCL-136), human fibroblasts (98VA3N cells, obtained from Dr. Jerry VanderBerg, at the Veterans Administration Medical Center, San Diego, Calif.), ES2 (ovarian cancer cell line), C3A (liver cancer cell line), and MCF-7 breast cancer cells were cultured in minimal essential medium supplemented with fetal bovine serum as known in the art (See e.g., Buck et al., EMBO J., 13:151-160 (1994)). As additional cell types find use in the present invention, it is not intended that the present invention be limited to these specific cell lines. Indeed, similar results have been obtained with other cell types (e.g., CCF-STTG1 cells (ATCC Accession No. CRL-1718)) (data not shown).
(§2) Cells were co-transfected with vectors expressing the indicator protein GFP and C/EBPβ-Ala^217 as known in the art (See, Buck et al., Mol. Cell., 4:1087-1092 (1999)). Control cells were only transfected with GFP. […]

[2] = tested on: 1321-N1 (glial cancer cells); test: Annexin-V binding apoptosis assay after transfection, 1321-N1 cells; assay type: cell-based, human; conditions: annexin-V binding four hours after transfection
Protocol: as §1, §2

[3] = tested on: human fibroblasts (98VA3N cells); test: Annexin-V binding apoptosis assay after transfection, 98VA3N cells; assay type: cell-based; conditions: annexin-V binding four hours after transfection
Protocol: as §1, §2

[4] = tested on: C3A (liver cancer cell line); test: Annexin-V binding apoptosis assay after transfection, C3A cells; assay type: cell-based, human; conditions: annexin-V binding four hours after transfection
Protocol: as §1, §2

[5] = tested on: ES2 (ovarian cancer cell line); test: Annexin-V binding apoptosis assay after transfection, ES2 cells; assay type: cell-based, human; conditions: annexin-V binding four hours after transfection
Protocol: as §1, §2

[6] = tested on: MCF-7 breast cancer cells; test: Annexin-V binding apoptosis assay after transfection, MCF-7 cells; assay type: cell-based, human; conditions: annexin-V binding four hours after transfection
Protocol: as §1, §2

hepatic stellate cells = test: Apoptosis of activated stellate cells transfected with C/EBPβ constructs, annexin-V-PE binding; assay type: cell-based, mouse; conditions: transfected cells on collagen type I matrix
Excerpt: FIG. 1 provides data showing that phosphorylation of C/EBPβ on Thr^217 is required for hepatic stellate cell survival. Panel A provides phosphopeptide maps of in vivo labeled endogenous C/EBPβ in day-4 quiescent and activated primary mouse stellate cells cultured from the time of isolation on EHS or collagen type I matrix, respectively. The arrow indicates the peptide containing Phospho-Thr^217 in activated cells. […] Panel B provides phosphopeptide maps of in vitro labeled C/EPBβ. Active p90RSK phosphorylated C/EPBβ, but not C/EBPβ-Ala^217 on Thr^217 in vitro (arrowheads). Panel C provides results for cells cultured on collagen type I transfected with MSV-C/EBPβ antisense (AS), MSV-C/EBPβ sense (S), or MSV-C/EBPβ-Ala^217 together with CMV-GFP (green fluorescent protein) and p90RSK (1 μg each), as indicated in the Figure. Four hours after transfection, annexin-V-PE binding to plasma membranes was determined. The values presented are the percentage of transfected cells (green) that were annexin-V-PE (+) (red) (P<0.05 for C/EBPβ AS, and C/EBPβ-Ala^217). Panel D provides results for cells transfected as in […] with vectors expressing dominant negative mutants for MEKK1, IκBα, or p90RSK, or treated with the proteasome inhibitor lactacystin (10 μM) (closed bars), and co-transfected with MSV-C/EBPβ-Glu^217 (1 μg each) (open bars) as indicated. Annexin-V-PE binding was determined as described for Panel A (P<0.05 for C/EBPβ-Glu^217). Panel E provides results for cells transfected as described for Panel C, with a dominant-negative p90RSK, treated with FAS (100 nM for 6 hours) or cultured in a serum-free medium for 6 hours (closed bars), and co-transfected with MSV-C/EBPβ-Glu^217 (1 μg each) (open bars), as indicated. Cell death was determined by nuclear staining with Hoechst 33342 (P<0.05 for C/EBPβ-Glu^217 in RSK mut and FAS-treated cells).
FIG. 4 provides results showing that C/EBPβ PThr^217 associates with procaspases 1 and 8, and inhibits their activation. Panel A provides schematic representations of C/EBPβ peptides. The activation (dotted bars), DNA binding (solid bars) and dimerization (hatched bars) domains are shown. […] Panel C provides results showing that C/EBPβ and procaspase 8 were detected in activated stellate cells isolated from C/EBPβ^+/+ mice by confocal microscopy using specific antibodies (Santa Cruz Biotechnology). Control C/EBPβ^−/− stellate cells were negative for C/EBPβ, positive for procaspase 8, and apoptotic. Panel D provides immunoblot results for MSV vectors expressing C/EBPβ-HA (hemagglutinin protein) peptides (0.3 μg) transfected into activated stellate cells. The expressed peptides were immunoprecipitated with anti-HA antibodies. C/EBPβ-PThr^217 was detected using a specific antibody, only in cells expressing wild-type C/EBPβ. […] RSK was associated with all C/EBPβ peptides. Neither C/EBPβ nor procaspases 1 and 8 were detected in C/EBPβ immunoprecipitates from cells expressing C/EBPβ AS. Reciprocal immunoprecipitations of procaspases and RSK confirmed these associations.
Adult male Sprague-Dawley rats and adult male C/EBPβ^+/+ and C/EBPβ^−/− (Screpanti et al., supra; and Buck et al., (1999), supra), C/EBPβ-Ala^217 and C/EBPβ-Asp^105 transgenic mice were used for the isolation of primary hepatic stellate cells (Houglum et al., supra). Primary hepatic stellate cells were isolated by collagenase/pronase perfusion and purified by a single step density Nycodenz gradient (Accurate Chemical & Scientific) as known in the art (See, Lee et al., (1995), supra). Cells were plated on type I collagen matrix (Becton Dickinson) or EHS matrix (Matrigel, Collaborative Biomedical Products). Cells were cultured with 10% fetal calf serum/10% fetal bovine serum and transfected with lipofectamine (GIBCO) for DNA vectors or with the Chariot reagent (Active Motif) for peptides (10 μM) as known in the art (See, Houglum et al., supra; and Morris et al., J. Biol. Chem., 274:24942-24946 (1999)). […]

B1: C/EBPβ-Ala^217: modified murine C/EBPβ with mutation of Thr^217 to Ala (SEQ ID NO:3), nonphosphorylatable dominant negative mutant (protein, listed as Mus musculus)
chain: MHRLLAWDAACLPPPPAAFRPMEVANFYYEPDCLAYGAKAARAAPRAPAAEPAIGEHERAIDFSPYLEPLAPAADFAAPAPAHHDFLSDLFADDYGAKPSKKPADYGYVSLGRAGAKAAPPACFPPPPPAALKAEPGFEPADCKRADDAPAMAAGFPFALRAYLGYQATPSGSSGSLSTSSSSSPPGTPSPADAKAAPAACFAGPPAAPAKAKAKKAVDKLSDEYKMRRERNNIAVRKSRDKAKMRNLETQHKVLELTAENERLQKKVEQLSRELSTLRNLFKQLPEPLLASAGHC
- Apoptosis (%) [1]: 46* %
- Apoptosis (%) [2]: 56* %
- Apoptosis (%) [3]: 80* %
- Apoptosis (%) [4]: 34* %
- Apoptosis (%) [5]: 44* %
- Apoptosis (%) [6]: 49* %
- Effect of expressed construct on apoptosis / survival of stellate cells (hepatic stellate cells): became apoptotic
